The source of these data is publication PMC8533965.

Like-named read-outs stand apart in the source and are kept apart here.

Experiment [1] concerns the target zebrafish Vasa, full length (amino acids 1–715), fused to the Venus N-terminal half (zfVasa-VN) (zebrafish). In words: split reporter (BiFC, NanoBiT); BiFC with split Venus in living zebrafish embryos: Buc constructs with VC and zfVasa constructs with VN at their C-termini, mRNAs (200 ng/μL) co-injected at the one-cell stage, fluorescence imaged at 3 hpf by confocal microscopy; read-out percent of fluorescent embryos, three independent ….

For experiment [2], the target named is zfVasa (amino acids 227–670), recombinant, GST tag removed (zebrafish).
The target of experiment [3] is zebrafish Vasa, full length (amino acids 1–715), fused to the Venus N-terminal half (zfVasa-VN) (zebrafish). In words: split reporter (BiFC, NanoBiT); BiFC with split Venus in living zebrafish embryos: Buc constructs with VC and zfVasa constructs with VN at their C-termini, mRNAs (200 ng/μL) co-injected at the one-cell stage, fluorescence imaged at 3 hpf by confocal microscopy; read-out percent of fluorescent embryos, three independent …. This is another data set of the same source.

In experiment [4] the target is zfVasa-BBM (amino acids 600–625) fused to the Venus N-terminal half (zebrafish). The experiment is described as above.
The target of experiment [5] is zfVasa eRecA-CTD (extended sequence at the C-terminus of RecA-CTD, amino acids 624–715) fused to the Venus N-terminal half (zebrafish). The experiment is described as above.
Experiment [6] concerns the target zfVasa-HC (helicase core, amino acids 278–715) fused to the Venus N-terminal half (zebrafish). The description is as above.
The target of experiment [7] is zebrafish Vasa, full length (amino acids 1–715), fused to the Venus N-terminal half (zfVasa-VN) (zebrafish). The experiment is described as above. This is another data set of the same source.
For experiment [8], the target named is zfVasa RecA-CTD (amino acids 496–623) fused to the Venus N-terminal half (zebrafish). Described as above.
Experiment [9] has as its target zfVasa S607A (full length) fused to the Venus N-terminal half (zebrafish). Described as above.
Experiment [10] deals with zfVasa S608A (full length) fused to the Venus N-terminal half (zebrafish). The experiment is described as above.

As to SVLSPSIDELSSRDEMFSTDVED (domain or fragment) [Buc amino acids 372–394 (highly conserved sequence, Buc-VBM) fused to the Venus C-terminal half], the percent of fluorescent embryos (BiFC) in experiment [1] was 66%.

As to YPQVTQERQSVLSPSIDELSSRDEMFSTDVEDLEVVPG [Buc-VBM (amino acids 363–400), recombinant, GST tag removed], the ATPase activity of 5-µM zfVasa with 2.5-mM ATP (NADH-coupled assay, absorption at 340 nm, 25 °C) on addition of 100-µM Buc-VBM, without RNA in experiment [2] is 2 fold.

In the case of YPQVTQERQSVLSPSIDELSSGDEMFSTDVEDLEVVPG (domain or fragment) [Buc-VBM (amino acids 363–400) R384G (non-conserved control) fused to the Venus C-terminal half], in experiment [3], the percent of fluorescent embryos (BiFC) amounted to 63%.

As to YPQVTQERQSVLSPSIDELSSRDEMFATDVEDLEVVPG (domain or fragment) [Buc-VBM (amino acids 363–400) S389A fused to the Venus C-terminal half], the percent of fluorescent embryos (BiFC) in experiment [3] was 43%.

YPQVTQERQSVLSPSILELSSRDEMFSTDVEDLEVVPG (domain or fragment) [Buc-VBM (amino acids 363–400) D379L fused to the Venus C-terminal half]: the percent of fluorescent embryos (BiFC) is 38% in experiment [1] and 36% in experiment [3].

Regarding YPQVTQERQSVLSPSIDELSSRDLMFSTDVEDLEVVPG (domain or fragment) [Buc-VBM (amino acids 363–400) E386L fused to the Venus C-terminal half], in experiment [3], the percent of fluorescent embryos (BiFC) came to 48%.

As to YPQVTQERQSVLSPSIDELSSRDEMFSTDVEDLEVVPG (domain or fragment) [Buc amino acids 363–400 fused to the Venus C-terminal half], the percent of fluorescent embryos (BiFC) in [1] was found to be 72%; in experiment [3] it was 70%.

B1: Bucky ball, full length (amino acids 1–639), fused to the Venus C-terminal half (Buc-VC) (natural protein)
chain: MEGINNNSQPMGVGQPHHPVNHTRPFFYVQPPSQPYFMYQWPMNPYGHYGFPGPALHFGRPYMAPYQFMQYPGYVIPHAPMQPIDYRRINPHYPSVASYDLRVRHHFQNAGMHRETACSEVQTDPSDSVNKLIDKIESLKACELGSDKGPNNVVSSTPDVVQGEKLTRLNEDSNLEVATKECKEDPVTRPTTYSDSAYDAESSQGRLDECVFSDVLPLDSSSVHEEEEEEEKDVNEEDEPQTVADEICSQNEMSASTTSNVFCSGVQSIADPTECHDLEKLGDEQKQDIPSADAAAVIEPLISLSEDFDLPYQILRLPCNKTTTGLSLEREIDPLVYFDSPSTLLPPQNYLSSIGSAYSYSYYPQVTQERQSVLSPSIDELSSRDEMFSTDVEDLEVVPGHVYVGGGRLAEASDMPVRSRKELPSVDKTCSVCQKTCACCGSTLQDEVGMCKMAEHSHPERDEMSDQDCDYDLEAEVRSNCESPRVSKRKCCSRHALPSCGHHCAKHRHRKLLCEGQESCDLREQARVHPKGECCEEYGALAKADKRIQKGALCRPCIEQQWREGVVSDQENWASCGAKPRSWRQVTGPQDQGRTPLRRSTCKSIHQQRPRSEYNDYDETEFTYCQRGRGSMKKRGSRY
For the molecule B1, the percent of fluorescent embryos (BiFC) in [1] came out at 82%; in experiment [4], 69%; in experiment [5], 14%; in [6] it was 70%; in experiment [7] it was 77%; in experiment [8] it was 64%. The percent of fluorescent embryos (BiFC) in experiment [9] was determined as 38%; in experiment [3] it was 79%; in [10] it was 27%.

B2: Buc-CTD (amino acids 363–639) fused to the Venus C-terminal half (domain or fragment)
chain: YPQVTQERQSVLSPSIDELSSRDEMFSTDVEDLEVVPGHVYVGGGRLAEASDMPVRSRKELPSVDKTCSVCQKTCACCGSTLQDEVGMCKMAEHSHPERDEMSDQDCDYDLEAEVRSNCESPRVSKRKCCSRHALPSCGHHCAKHRHRKLLCEGQESCDLREQARVHPKGECCEEYGALAKADKRIQKGALCRPCIEQQWREGVVSDQENWASCGAKPRSWRQVTGPQDQGRTPLRRSTCKSIHQQRPRSEYNDYDETEFTYCQRGRGSMKKRGSRY
Take B2: the percent of fluorescent embryos (BiFC) in experiment [1] worked out at 77%.
